The record followed here is patent US20230053258.

The series addresses recombinant human insulin (UniProt P01308).

recombinant human insulin, sequence (P01308 whole entry, looked up): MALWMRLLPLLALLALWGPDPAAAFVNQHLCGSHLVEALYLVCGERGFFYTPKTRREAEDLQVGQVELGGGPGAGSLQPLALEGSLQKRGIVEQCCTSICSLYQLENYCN

“recombinant human IDE, inactive mutant E111Q”: the “insulin degradation (residual insulin by ELISA)” value was “the mutated IDE degraded only 15% of the insulin under the same conditions”.

On to “recombinant human wild type insulin degrading enzyme (WT rhIDE)”, for which the “insulin degradation (residual insulin by ELISA)” value was ~60% degradation following 2 hours at 37 °C.
